The results in this text go back to a protein production outcome set (Wang et al. 2014).

A short description of this data set: label from the status in PepcDB records.

As for “MESSEEDDEYPFIESITPQSKIDSVHQSLTEKGIRKLCCELMDLKDAVENMCGDMRTKYLAFLRISEEAVEMEHELVELRKHISSQGILVQDLMAGVCREMDDWNRLPGDVHDAEVEEDPLPNEVTDPKSEFLEKIDLLLAEHKVDEALEAMDAEERSSPDLKGSVEMSSYKSAFMERKAVLEDQLLRIAKQPSICVAELKHALIGLIRLGKGPSAHQLLLKFYATSLRRRIEAFLPSCLTCPNTFPATLSKLVFSNISVATKESAAMFGDDDNPAYSNKVVQWAEREVEYLVRLVKENASPSETASALRAASICLQDCLNYCKVLEPQGLFLSKLFLVLFRPYVEEVLELNFRRARRVIFDLNETDEGLESPSDFVTILSEFAIASDTMMTDCSIRFMQIVQDILEQLTHLVVLHFGESVLTRILQLYDKYIDFLIKALPGHSDEDGLPELQDNTVLARAETDSEQLALLGAAFTILDELLPRSLVKVWKLQIENGGGEGENSAALNSSAAPELKEWKRHMVQAFDKLRNYFCLQFVLSFIYSREGLTRLDALIYLTETPDDLHLPSLPFQALFSKLQQLAIIAGDVLLGKEKLQKILLARLTETVIIWLSNEQEFWSAFEDESNPLQPSGLQQLILDMNFTVEIARFAGYPFKVVQNHASVVINRAINIFSERGINPQSSLPKTEWFTEAAKSAINRLLMGSEDASEPEEYECEEEEEDDHHIVLPEMDDDSDSEDTSSLSTVDSFESFASASMADLESPSFTDSES”, the protein production result was “failed”.

On to “MESSPLISAGLPIALFIIMIGIGMTLTLRDFRQVAVYPKGMIVGTFAQILLMPVVAFGLAWLFGVSPAIAVGLVIIAACPGGTTSNLFVLLARGNIALSIVLTVSASLITILTLPLFTNMALQHFMGTEESISLPVGKTIAMLVVIVLLPVAIGMLVRTRKPELARKAESLVSIFGGIVLAVLVVALLYGVRDQMWDLLKQAGPSTIALNVAGIALGLLAGRVAGLTQRESLAVAVELGVKNGTIGLMVTLTLLESSTMSIPAAVYGVLMFPIGFLLAMYGRKVIPKSNVAHAAGEA”, for which the protein production result is “failed”.

“MESVAFIQWCLEHLNYWTITLLMTIESSFIPFPSEVIIPPAAYKAAVNDELNIYLVVLFATIGADIGALINYYLAKWLGRPIIYKFANSRIGHMCLIDEAKVQHAESYFDKHGALSTFIGRLIPAVRQLISIPAGLARMKMHTFLLYTTIGAGLWNTILAVIGYYLSTVPGIESEEQLIAKVTEYSHEIGYCFIAIGIFIVGFLVYKGMKKK”: the protein production result is reported as “failed”.

For the sequence “MESVTFEDVAVEFIQEWALLDSARRSLCKYRMLDQCRTLASRGTPPCKPSCVSQLGQRAEPKATERGILRATGVAWESQLKPEELPSMQDLLEEASSRDMQMGPGLFLRMQLVPSIEERETPLTREDRPALQEPPWSLGCTLPLLSLLLPSCPEPPLVLLDSSSAPDRHLGSTLDTEARGIP”, the protein production result was “failed”.

On to “METAITRMLGIRYPIVAAPMFLVSNAPLLQAVAEAGGIGVIPSLNFRTHQAFREFLESFPEGVPFGVNLILKGNPRLEEDLEAVVERRVPLVVTSLGDPTRVVERVKAYGGVVWCDVVGLRHGRKAVEAGADALVAVACGAGGHAGRVSPFVLGPWLREELGVPVLIAGGIATGRQVLAALALGDGVYIGTRFIATLESGAPLEYKEALLRAQPEDIEYTPEVTGVPANFLRESLERFRQGGGKAWKEVYSAGHGVAFIREIPSAKEVVARLVEEYRAAKAGLP”, for which the protein production entry is “failed”.

For “METALVSIIMPMYNAGKFLSKSIESVLEQTYQNWELLLIDDGSKDDSIDIALAFMEKDSRIFLLKNEQNMGIAKTRNKGIEASKGQYIAFLDSDDLWLPNKLEVQVKWMEEKKLLFTCSSYFVCNENGNITHERNFSEGPQTYQDLLKTNTIGCLTVVVESNLLKRHLMPDLKHEDYATWLNILKEINTVYFINEKLAIYRKLTTSTSSNKWNTISWVWKILRQNEQFSVIKSSFYLMRFLFYTTFKYAKNELEHHHHHH”, the protein production result was “not failed”.

“METIKIGVVGLGTVGTGVVKMLQAHQEKISEITGRKLELACVVVHNLKKHEQVDLGDVQMTDQIATLLDDPSIQIMVEVMGSIHPAKEYITQALQAGKHVVTANKDLIAQYGRELVQIARENHRDLFYEASVAGGIPILRTIDNSFAADRIQRVMGIVNGTTNYIMTQMLTKHWSYDQALSSAQDLGFAESDPTNDVEGLDAAFKMIILTQFAFGMSLSLDHVQVQGITKISPEDIAEAHQLGYTIKLLGIAEEIDDRIAVSVGPVLVSDQHPLATVQNENNAVMVTGTAVGNTMFYGPGAGELPTANSVLSDITTVAKNIALNTTGNTFNSYRQETVLATPEDVVYPHFIALKMRDVPGMMMKLTAIMTRAEVSFSRIIQNQLGDGNARVVIITHAMNDQQLADITREIGEQENMQLLASYKVLKNA”: the protein production entry is “failed”.

“METKTVAITMGDPAGIGPEIIVKALSEDGLNGAPLVVIGCLATLKRLQAKGITPNVELRAIERVAEARFAPGIIHVIDEPLAQPEALEAGKVQAQAGDLAYRCVKRATELALRGDVQAIATAPLNKEALHLAGHNYPGHTELLATLTHSRDYAMVLYTDKLKVIHVSTHIALRKFLDTLSTARVETVIGIADTFLKRVGYVKPRIAVAGVNPHAGENGLFGDEETRILTPAITDARAKGMDVYGPCPPDTVFLQAYEGQYDMVVAMYHDQGHIPLKLLGFYDGVNITAGLPFIRTSADHGTAFDIAWTGKAKSESMAVSIKLAMQLA”: the protein production entry was “not failed”.

Regarding “METLNDIKKILINVGLYQGFDLTDPKVSEEVNHETANMKWIKDYTSDGNWDNEFKEDLKNFLDYMEVCQLALNDKNFKIASNSLFMAMIYAGNLSLIFDSIKTDISTLLSAEYKKNSFSWPSLDE”, the protein production entry was “not failed”.

On to “METLRVSSKSRPNSVAGAIAALLRTKGEVEVQAIGPQAVNQAVKAIAIARGYIAPDNLDLVVKPAFVKLELENEERTALKFSIKAHPLET”, for which the protein production result is listed as “not failed”.

On to “METQKTQAENPPKPATSSCRKKTKDDANFLEDVKDHIDDFINASMDDHKNCFNKTIKKMFGLSKAVADKQQSEAKGGVESYLPLQTTVSD”, for which the protein production result was “failed”.

In the case of “METSMRYTSNSKSMKIHAKEKVPVNSKTHLQLHGELDTGTGAPSYFCAMIRHFFPEASTGLGVGLHYDKRQKLRCLVRGKKEFPVRADKRVTFNIKGRCDIDQDLNQKNPKGAAEFAWNIMDFKEDQDVRIKVGYEMFDKVPYMQIRENNWTLNANMKGKWNLRYDL”, the protein production entry is “failed”.

Consider “MEVFLMIRRKKTTIFAEAQESSTVLELKRIVQGILKRPPEEQLLFKDDQLLDESKTLRDCGFTSQIAKAQDPATVALVFREDASEGVQIHPYSTPLLPSVMKTGTDSLSDEIKSGLDSLSDEIKSGLDSVWCIKPEAAAGMEVFLMIRRKKTTIFAEAQESSTVLELKRIVQGFLKKPPKDQLLFKDNQLLEERKTLRDCGITGRIAKPEDPAILTLEFREDAFQLLHASPFSCPLIGGVLKNGLDFKRD”, for which the protein production entry is on record as “failed”.

In the case of “MEVGMIPRVYLGHEWFGAERILSEYQVPEDCGAQVLFLGIPRNAPEDGGNIEALEYEAYPEMAIKEMEKIRQETIEKFGVKEVFIHHRLGLVKIGEPSFLVLAVGGHREETFKACRYAVDETKKRVPIWKKEIFKEGKGEWVLGEKKNASGQTK”, the protein production entry was “not failed”.

Regarding “MEVHYMTKIKEIKKVLQQEDADAAWITTPLNIFYFTGYRSEPHERLFALLIPSNEEPVLFCPKMEVEEVKQSPFKGKIIGYLDTENPFDKYSKTFSKMLIESEHLTVKRQRELTKAFNIEHYQDVDQSIKDLRNIK”, the protein production result is “failed”.

“MEVIESKWYKKDGASSASIDDVEKLLNTTLPKQYKSFLLWSNGGEGKLGDNYIYIWAIEDVIAYNHDYGIQKYLQKEYWAFGMDGDIGYILHLSDNSIYRVDLGDLDITSIKYIAPSFDDFLGKAIYLNFNKLQNVANNNLTT”: the protein production entry is on record as “not failed”.

With “MEVKEVELELSSEATFLSKTSIGEITAGEKGLNPMELLLVSIGSCSGVDVYHILKKKRQEVKDIKIFLKGKRREKHPKIYEEIEIKYVAVGKVEEKALEQAVKLSTEKYCSVLAMVKPSTNLKISWEVKWEE”, the protein production entry is listed as “not failed”.

For “MEVKGFIEIMRPHNCILAGIVGILGALVAYEGIPDIKTLTLIFWVVYFGCSGGNTANDYFDYEIDKINRPNRPLPRGAMSRRAALYYALLQYAIGSILAYFLNIRAFVFATIAYFLTFLYGWKLKPLPLVGNITVAALTAATPIYGAIGVGRIGLAGYLAICAFLVNVSREIMKDIEDIEGDKALGARTLPIIIGEKKAAIIAAIFGFLTVIASFLPVKVGIGLGYAPIIIVDIIIIKASIDVLRDPKAASKGQKLLKIATFVAVISFLAGALTKGV”, the protein production entry is recorded as “failed”.

For “MEVKKELNAQSGKKSLMTIENRKRLLLTGVSEVVNFNDEQIVLNTNLGSLIIKGRELKMNKLDVQNGDIAITGTINAVYSGNESSNKKDSIISRLFKLEHHHHHH”, the protein production result was “failed”.

As to “MEVKKVLVSAFLLTTCLMSGQAQRRNEIQVPDLDGYTTLKCDFHMHSVFSDGLVWPTVRVDEAYRDGLDAISLTEHIEYRPHKQDVVSDHNRSFDLCREQAEKLGILLIKGSEITRAMAPGHFNAIFLSDSNPLEQKDYKDAFREAKKQGAFMFWNHPGWDSQQPDTTKWWPEHTALYQEGCMHGIEVANGHLYMPEAIQWCLDKNLTMIGTSDIHQPIQTDYDFEKGEHRTMTFVFAKERSLQGIREALDNRRTAAYFHELLIGREDLLRPFFEKCVKIEEVSRNEQGVTLSITNVTDLVLKLKKTAHDTLLVYFRDMTLKPHTRYTVRIGFKQGIKGGDVNFEVTNFIVAPDKGLKYTISL”, the protein production entry is given as “failed”.

As to “MEVNKPLPLISIIVPIYNIAEYASECIQSLINQTYKNIEIILVDDGSTDHSPAICDEFAEQDERIKVIHKRNGGLSDARNAGLDVATGEYIGFVDGDDWVDEDMYETLYHLIYEHQADISICTHYTELPNRTKVKYKSKKTKIFSSQKAIATLIEDKIIQNYIWEKLFKRELFTELRFPVGWSFEDIALCYKVFHKARKIVLLQTPKYHYRTRPGSITNSTRNPLKEFQYLQALHEQFQFAAENNIKVRKPKKLVQKTFHFINHIIILPPSSLKKKYINDAFEIAHTYDYLRNWEIGVAATLRRFFVYNYFNAYASVIITYRKYIPARTVKSTTEFFFVRRVATSLATAMRSILYILEHHHHHH”, the protein production result is listed as “failed”.

For the sequence “MEWFDKISEFMEGLPEWLQAHPRYGYLIVAGILLLWLVGIVCGWRWTYSRPGSWEGNFWLGTLGERSYRFWLGLIVAAATGCALLLFSVTG”, the protein production entry was “failed”.

“MEWLFWFDARDYEFARQVLQRGTAVLYAVAFLSTLNQFPALLGERGLLPVPAFLDMARRLARPTLFRWRYSDALLKAVCWTGIGVSVLLVMGLPQTGPPWLPMLAFLTLWFLYMSIVNVGQTFYGFGWEILLLEAGFTVAFLGSNQCPPPTTILVLIVWLVFRLEFGAGMIKIRGGREWRDMTAMFYHHETQPMPGPLSRQAHLLPRPLHKVEVVGNHFAQLVVPFFLFAPQPLASIAAGIIIATQLWLVGTGNFAWLNWVAIVLAFAAVSDPVAHAVFPFIPLEWHQSTETPVWWLAVVVLVTVLLLVFSYQPLLNLFSSRQLMNASFNRWRLVNAYGAFGTVTKQRIEIVVEGTLDDAPDAPDERWLEYGFKGKPGDVRRLPRQWAPYHLRLDWLMWFLPLRTVHEDWFYIFLDRLLEADRRTLGLLRVDPFDGERPRWVRARSYLYRFASRAEFRETGERWVRVLLYDAIPPVSLSPRRRRLP”: the protein production result is on record as “failed”.

Consider “MEYKLTPSYLLKENMVLACGNILFADDGFSVHVIEKLQELLTEEEKENIALVDAGAGAPQQVLTLIDSEAKTKKIIVVDIIDYGLEPGEIKILTMDDLPKPEHTKVDSHDWPLSTTMYRVFRDAPHEIDFKVVGCQKKYVSEPDVVIELSEEVQNAVDVAVDIVLSELRGKPIN”, for which the protein production entry is “not failed”.
